Bridge positions count the residues as written; N and C are the ends. Square brackets hold non-standard residues; d marks the D form. Ends that are not written are not given here. * marks the point of attachment. mXylyl = xylyl linker from dibromoxylene joining the two cysteines; des‑NH2 = missing amino-terminal amine group; NMeY = CN[C@@H](Cc1ccc(O)cc1)C(=O)O; Phg = N[C@H](C(=O)O)c1ccccc1; Tle = CC(C)(C)[C@H](N)C(=O)O; NMeS = CN[C@@H](CO)C(=O)O; Heptanoyl = CCCCCCC(=O)*; Nva = CCC[C@H](N)C(=O)O
T1: tissue kallikrein KLK13 (R&D Systems) (human, UniProt Q9UKR3 17-277, limits assumed)
T1 sequence (looked up): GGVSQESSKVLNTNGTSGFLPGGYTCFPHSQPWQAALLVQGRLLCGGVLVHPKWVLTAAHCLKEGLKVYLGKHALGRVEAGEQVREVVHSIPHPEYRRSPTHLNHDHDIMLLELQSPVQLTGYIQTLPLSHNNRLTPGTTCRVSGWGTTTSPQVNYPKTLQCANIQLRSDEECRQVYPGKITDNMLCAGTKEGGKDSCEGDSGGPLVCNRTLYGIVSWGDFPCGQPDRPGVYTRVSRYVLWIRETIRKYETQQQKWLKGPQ

T2: Factor XIIa (Enzyme Research Laboratories) (human, UniProt P00748 20-615, limits assumed)
T2 sequence (looked up): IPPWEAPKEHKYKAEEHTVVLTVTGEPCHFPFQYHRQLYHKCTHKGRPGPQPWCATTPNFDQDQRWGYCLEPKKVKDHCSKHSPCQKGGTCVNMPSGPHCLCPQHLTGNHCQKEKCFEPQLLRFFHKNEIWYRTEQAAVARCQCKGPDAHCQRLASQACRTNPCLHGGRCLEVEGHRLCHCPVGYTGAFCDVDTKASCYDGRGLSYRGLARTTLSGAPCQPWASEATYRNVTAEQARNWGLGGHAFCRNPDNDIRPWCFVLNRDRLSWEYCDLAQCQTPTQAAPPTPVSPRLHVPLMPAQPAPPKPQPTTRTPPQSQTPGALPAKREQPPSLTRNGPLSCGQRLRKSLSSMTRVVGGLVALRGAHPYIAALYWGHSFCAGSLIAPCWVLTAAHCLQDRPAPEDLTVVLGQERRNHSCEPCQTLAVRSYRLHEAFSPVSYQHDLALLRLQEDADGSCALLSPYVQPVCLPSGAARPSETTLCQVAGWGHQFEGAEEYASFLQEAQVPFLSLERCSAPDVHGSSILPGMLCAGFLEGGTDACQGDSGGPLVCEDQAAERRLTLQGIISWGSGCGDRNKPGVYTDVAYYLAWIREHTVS

T3: Factor VIIa (Enzyme Research Laboratories) (human, UniProt P08709 61-466)
T3 sequence (looked up): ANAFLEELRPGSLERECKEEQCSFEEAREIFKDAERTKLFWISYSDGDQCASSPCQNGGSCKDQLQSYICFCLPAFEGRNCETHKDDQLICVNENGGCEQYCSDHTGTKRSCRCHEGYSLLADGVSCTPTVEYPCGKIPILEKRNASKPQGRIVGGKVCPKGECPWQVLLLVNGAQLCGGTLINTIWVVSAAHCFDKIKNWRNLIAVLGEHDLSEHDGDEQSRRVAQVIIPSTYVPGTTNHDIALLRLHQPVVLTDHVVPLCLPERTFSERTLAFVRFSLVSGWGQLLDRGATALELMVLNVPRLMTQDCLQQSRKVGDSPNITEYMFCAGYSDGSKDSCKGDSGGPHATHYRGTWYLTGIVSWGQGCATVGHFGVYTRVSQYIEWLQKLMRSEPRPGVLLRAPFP

B1: R2239 (peptide)
peptide: Ac-CN[NMeY]WSPWTAC-NH2
modifications: cysteine pairing not given here
B2: R2030 (peptide)
peptide: [Nva]CEP[Phg]CR[Tle]-NH2
modifications: linker 2-6 via mXylyl
B3: R2041 (peptide)
peptide: Heptanoyl-CESICRV-NH2
modifications: linker 1-5 via mXylyl
B4: R2010 (peptide)
peptide: MCESICR[Tle]-NH2
modifications: linker 2-6 via mXylyl
B5: R2023 (peptide)
peptide: Ac-CESICRV-NH2
modifications: linker 1-5 via mXylyl
B6: R2012 (peptide)
peptide: MCES[Phg]CRV-NH2
modifications: linker 2-6 via mXylyl
B7: R2019 (peptide)
peptide: MCE[NMeS]ICRV-NH2
modifications: linker 2-6 via mXylyl
B8: R2047 (peptide)
peptide: Ac-CASICRV-NH2
modifications: linker 1-5 via mXylyl; not fully specified (residue 2); printed as [mXylyl(1,5)]Ac-C-a-SICRV-NH2
B9: R2036 (peptide)
peptide: Ac-CAS[Phg]CR[Tle]-NH2
modifications: linker 1-5 via mXylyl
B10: R2006 (peptide)
peptide: MCESICRV-NH2
modifications: linker 2-6 via mXylyl
B11: R2051 (peptide)
peptide: {des‑NH2}-CESICRV-NH2
modifications: linker 1-5 via mXylyl; not fully specified (residue 1); printed as [mXylyl(1,5)](des-NH2)C-ESICRV-NH2

The binders below were run against T4, Activated human plasma kallikrein (Enzyme Research Laboratories, HPKa 1303) (human, UniProt P03952 20-638) (assay: cell-based or functional assay).
T4 sequence (P03952 20-638 limits assumed): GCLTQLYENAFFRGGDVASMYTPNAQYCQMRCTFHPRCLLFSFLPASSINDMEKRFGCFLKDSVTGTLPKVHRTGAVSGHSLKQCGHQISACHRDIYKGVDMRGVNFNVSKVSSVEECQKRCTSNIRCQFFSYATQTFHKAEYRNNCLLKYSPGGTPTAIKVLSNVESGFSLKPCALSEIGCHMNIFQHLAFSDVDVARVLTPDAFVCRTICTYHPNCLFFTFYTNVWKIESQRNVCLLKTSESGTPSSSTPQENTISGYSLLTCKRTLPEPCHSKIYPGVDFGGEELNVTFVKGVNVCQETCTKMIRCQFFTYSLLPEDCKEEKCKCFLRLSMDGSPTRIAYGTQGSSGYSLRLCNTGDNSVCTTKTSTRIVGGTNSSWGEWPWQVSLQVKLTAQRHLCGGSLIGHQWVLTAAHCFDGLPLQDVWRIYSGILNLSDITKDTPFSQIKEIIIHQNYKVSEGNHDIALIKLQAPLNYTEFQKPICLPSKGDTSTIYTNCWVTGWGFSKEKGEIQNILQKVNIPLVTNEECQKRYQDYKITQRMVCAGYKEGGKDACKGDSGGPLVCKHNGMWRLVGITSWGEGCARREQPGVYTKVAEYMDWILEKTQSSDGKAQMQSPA

Avg. IC50 [µM] | Binder
> 12.5 | B1

Molecular target: T4, Activated human plasma kallikrein …
Test: cell-based or functional assay
Remark: another data set of the same source

Avg. IC50 [µM] | Binder
0.025 | B2
0.0242 | B3
0.0099 | B4
0.019 | B5
0.0083 | B6
0.0523 | B7
0.0174 | B8
0.0064 | B9
0.0118 | B10
0.0129 | B11

These binders were tested against thrombin (Enzyme Research Laboratories) (human, UniProt P00734 328-622) (assay: cell-based or functional assay).

Thrombin IC50 [µM] | Binder
> 100 | B2
> 100 | B3
> 100 | B4
> 100 | B5
> 100 | B7
> 100 | B8
> 100 | B9
> 100 | B10
> 100 | B11

What follows are binders tested against plasmin (Enzyme Research Laboratories) (human, UniProt P00747 97-810, limits assumed) (assay: cell-based or functional assay).
Chain of plasmin (Enzyme Research Laboratories) (P00747 97-810 limits assumed): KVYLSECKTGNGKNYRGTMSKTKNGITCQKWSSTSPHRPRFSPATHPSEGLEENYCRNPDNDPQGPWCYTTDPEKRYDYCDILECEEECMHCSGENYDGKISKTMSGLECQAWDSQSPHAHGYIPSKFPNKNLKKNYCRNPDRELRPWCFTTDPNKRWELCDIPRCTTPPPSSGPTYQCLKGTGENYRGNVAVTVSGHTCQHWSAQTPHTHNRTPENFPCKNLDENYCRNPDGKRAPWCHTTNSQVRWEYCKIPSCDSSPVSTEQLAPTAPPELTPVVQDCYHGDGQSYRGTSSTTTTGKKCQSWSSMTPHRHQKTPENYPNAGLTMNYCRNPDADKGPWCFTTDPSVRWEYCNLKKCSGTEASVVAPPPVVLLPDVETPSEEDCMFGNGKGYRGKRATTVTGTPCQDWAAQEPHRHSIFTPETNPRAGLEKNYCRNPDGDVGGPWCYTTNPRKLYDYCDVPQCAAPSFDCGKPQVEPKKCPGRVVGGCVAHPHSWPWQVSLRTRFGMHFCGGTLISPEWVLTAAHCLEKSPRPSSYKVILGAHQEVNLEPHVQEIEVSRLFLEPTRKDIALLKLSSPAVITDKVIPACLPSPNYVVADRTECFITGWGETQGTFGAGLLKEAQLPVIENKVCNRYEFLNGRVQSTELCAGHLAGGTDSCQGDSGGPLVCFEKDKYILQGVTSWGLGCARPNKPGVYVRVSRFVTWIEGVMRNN

Plasmin IC50 [µM] | Binder
> 100 | B2
> 100 | B3
> 100 | B4
> 100 | B5
> 21 | B7
> 100 | B8
> 19.5 | B9
> 100 | B10
> 100 | B11

These binders were tested against T1, tissue kallikrein KLK13 (R&D Systems) (assay: cell-based or functional assay).

KLK13 IC50 [µM] | Binder
> 100 | B2
> 100 | B3
> 100 | B4
> 100 | B5
> 100 | B6
> 16.4 | B7
> 100 | B8
> 100 | B9
> 100 | B10
> 100 | B11

These binders were tested against T2, Factor XIIa (Enzyme Research …) (assay: cell-based or functional assay).

Factor XIIa IC50 [µM] | Binder
> 100 | B2
> 100 | B3
> 100 | B4
> 100 | B5
> 12.5 | B7
> 100 | B8
> 100 | B9
> 100 | B10
> 100 | B11

Molecular target: T4, Activated human plasma kallikrein …
Test: cell-based or functional assay
Remark: another data set of the same source

Human Kallikrein IC50 [µM] | Binder
0.025 | B2
0.0242 | B3
0.0099 | B4
0.019 | B5
0.0083 | B6
0.0523 | B7
0.0323 | B8
0.0064 | B9
0.025 | B10
0.0129 | B11

These binders were tested against mouse plasma kallikrein (R&D Systems) (mouse, UniProt P26262 20-638) (assay: cell-based or functional assay).
Chain of mouse plasma kallikrein (R&D Systems) (P26262 20-638 limits assumed): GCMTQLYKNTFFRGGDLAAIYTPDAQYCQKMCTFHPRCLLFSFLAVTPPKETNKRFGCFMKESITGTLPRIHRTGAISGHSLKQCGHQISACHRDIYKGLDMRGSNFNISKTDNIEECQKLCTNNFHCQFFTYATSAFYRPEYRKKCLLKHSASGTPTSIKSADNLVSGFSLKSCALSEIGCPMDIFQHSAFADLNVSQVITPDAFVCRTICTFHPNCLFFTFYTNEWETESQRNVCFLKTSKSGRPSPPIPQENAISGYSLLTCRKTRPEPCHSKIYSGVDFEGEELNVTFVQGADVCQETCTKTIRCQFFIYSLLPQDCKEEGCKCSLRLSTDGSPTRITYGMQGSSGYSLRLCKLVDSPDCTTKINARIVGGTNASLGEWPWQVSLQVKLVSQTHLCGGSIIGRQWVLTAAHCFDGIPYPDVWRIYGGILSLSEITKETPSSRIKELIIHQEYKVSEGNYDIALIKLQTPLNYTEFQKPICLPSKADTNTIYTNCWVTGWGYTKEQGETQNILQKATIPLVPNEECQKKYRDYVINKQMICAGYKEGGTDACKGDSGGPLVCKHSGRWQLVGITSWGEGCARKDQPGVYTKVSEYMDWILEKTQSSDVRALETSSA

Mouse Kallikrein IC50 [µM] | Binder
0.0639 | B2
0.191 | B3
0.0388 | B4
0.0473 | B5
0.0113 | B6
0.0856 | B7
0.0367 | B8
0.0128 | B9
0.042 | B10
0.0193 | B11

These binders were tested against Factor Xa (Enzyme Research Laboratories) (human, UniProt P00742 41-488, limits assumed) (assay: cell-based or functional assay).
Chain of Factor Xa (Enzyme Research Laboratories) (P00742 41-488 limits assumed): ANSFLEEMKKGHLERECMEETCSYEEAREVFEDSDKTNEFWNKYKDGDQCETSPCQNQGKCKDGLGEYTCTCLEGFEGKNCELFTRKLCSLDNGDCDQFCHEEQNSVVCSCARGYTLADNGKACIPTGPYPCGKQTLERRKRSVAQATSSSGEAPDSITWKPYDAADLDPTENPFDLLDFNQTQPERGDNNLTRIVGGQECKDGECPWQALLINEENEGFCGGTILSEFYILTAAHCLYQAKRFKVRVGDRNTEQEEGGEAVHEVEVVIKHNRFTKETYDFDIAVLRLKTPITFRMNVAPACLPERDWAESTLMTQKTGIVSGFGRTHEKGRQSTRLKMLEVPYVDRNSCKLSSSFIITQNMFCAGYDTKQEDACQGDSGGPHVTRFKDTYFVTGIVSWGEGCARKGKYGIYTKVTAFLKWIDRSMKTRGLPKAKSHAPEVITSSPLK

Factor Xa IC50 [µM] | Binder
> 100 | B2
> 7 | B3
> 100 | B4
> 7 | B5
> 10 | B7
> 100 | B8
> 7 | B9
> 7 | B10
> 100 | B11

These binders were tested against T3, Factor VIIa (Enzyme Research …) (assay: cell-based or functional assay).

Factor VIIa IC50 [µM] | Binder
> 100 | B2
> 17.9 | B3
> 100 | B4
> 100 | B5
> 100 | B7
> 100 | B8
> 100 | B9
> 100 | B10
> 100 | B11

Each binder was assayed against Factor XIa (Enzyme Research Laboratories) (human, UniProt P03951 19-625) (assay: cell-based or functional assay).
Chain of Factor XIa (Enzyme Research Laboratories) (P03951 19-625 limits assumed): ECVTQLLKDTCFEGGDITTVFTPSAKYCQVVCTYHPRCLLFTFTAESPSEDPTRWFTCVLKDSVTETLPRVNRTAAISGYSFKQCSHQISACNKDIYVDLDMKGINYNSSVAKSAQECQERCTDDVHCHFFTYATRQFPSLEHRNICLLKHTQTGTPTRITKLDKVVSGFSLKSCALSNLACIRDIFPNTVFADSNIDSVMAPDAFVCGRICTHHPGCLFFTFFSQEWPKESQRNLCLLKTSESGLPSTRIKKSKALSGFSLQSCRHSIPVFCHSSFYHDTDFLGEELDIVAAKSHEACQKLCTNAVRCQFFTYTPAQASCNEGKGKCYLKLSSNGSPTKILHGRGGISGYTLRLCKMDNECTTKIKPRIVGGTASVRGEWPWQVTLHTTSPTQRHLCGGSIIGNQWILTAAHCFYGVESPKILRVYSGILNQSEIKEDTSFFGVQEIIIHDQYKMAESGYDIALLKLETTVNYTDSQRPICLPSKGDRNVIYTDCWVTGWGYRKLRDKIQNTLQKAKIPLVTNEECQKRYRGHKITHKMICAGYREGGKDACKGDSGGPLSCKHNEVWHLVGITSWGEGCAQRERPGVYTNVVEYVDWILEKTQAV

Factor XIa IC50 [µM] | Binder
> 10.4 | B2
> 5.4 | B3
> 15 | B4
> 12.1 | B5
> 8.3 | B6
> 9.1 | B7
> 13.8 | B8
> 4.8 | B9
> 11.6 | B10
> 8.3 | B11

From patent US20150166606A1 (RA PHARMACEUTICALS, published 2015)
